The series deals with the molecule itself. As to the kind of experiment: electron microscopy.

B1: FliP (natural protein, Salmonella enterica serovar Typhimurium)
chain: QLPGLISQPLAGGGQSWSLSVQTLVFITSLTFLPAILLMMTSFTRIIIVFGLLRNALGTPSAPPNQVLLGLALFLTFFIMSPVIDKIYVDAYQPFSEQKISMQEALDKGAQPLRAFMLRQTREADLALFARLANSGPLQGPEAVPMRILLPAYVTSELKTAFQIGFTIFIPFLIIDLVIASVLMALGMMMVPPATIALPFKLMLFVLVDGWQLLMGSLAQSFYS
As for B1, the binding result is “binds”.

These data come from paper doi:10.1101/2020.11.25.397760 (bioRxiv, 2020).
